According to US20210130452A1 (Merck KGaA, published 2021):

T1: human IL-17F (human, UniProt Q96PD4 31-163, biotinylated with Sulfo-NHS-LC-Biotin in the AlphaScreen assays only)
T1 construct: also called hIL-17F; recombinant human IL-17F
T1 sequence: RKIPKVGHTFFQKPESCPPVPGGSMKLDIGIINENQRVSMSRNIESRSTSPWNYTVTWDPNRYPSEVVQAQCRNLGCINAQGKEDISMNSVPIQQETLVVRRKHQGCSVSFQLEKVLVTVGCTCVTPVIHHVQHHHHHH

T2: human IL-17F (human, UniProt Q96PD4 31-163)
T2 construct: made in Hek293 cells (GenBank AF384857); also called hIL-17F; hIL17F
T2 sequence: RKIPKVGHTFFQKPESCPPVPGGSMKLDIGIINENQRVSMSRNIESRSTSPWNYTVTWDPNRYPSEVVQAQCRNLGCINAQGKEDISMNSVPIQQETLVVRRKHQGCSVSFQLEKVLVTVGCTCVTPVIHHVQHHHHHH


Assays:
human IL-17A [1] = biological target: T3, human IL-17A (human, UniProt Q16552 24-155, biotinylated with Sulfo-NHS-LC-Biotin in the AlphaScreen assays only); experiment: cell-based or functional assay
human IL-17A [2] = biological target: T3, human IL-17A; experiment: AlphaScreen competition, hIL-17A - IL-17RA-Fc;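 further: receptor Fc-fusion plus Acceptor and streptavidin Donor beads incubated with the mixture for 1 h at room temperature before reading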
Procedure: (§1) To this mixture, the IL-17RA or IL-17RC Fc-fusions, Acceptor beads and the streptavidin Donor beads were added and further incubated for 1 hour at RT.

human IL-17A [3] = biological target: T3, human IL-17A; experiment: AlphaScreen competition, hIL-17A - IL-17RC-Fc;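 further: Read-out after 1 h at room temperature with the receptor Fc-fusion, Acceptor beads and streptavidin-coated Donor beads present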
Procedure: as §1

[4] = biological target: T4, human IL-17A/F heterodimer (human, UniProt Q16552 24-155; Q96PD4 31-163, limits assumed, biotinylated with Sulfo-NHS-LC-Biotin in the AlphaScreen assays only); experiment: AlphaScreen competition, hIL-17A/F - IL-17RA-Fc
T4 construct: also called hIL-17A/F
Procedure: as §1

[5] = biological target: T4, human IL-17A/F heterodimer; experiment: AlphaScreen competition, hIL-17A/F - IL-17RC-Fc
Procedure: as §1

human IL-17A [6] = biological target: T3, human IL-17A; experiment: SPR Biacore, hIL-17A on chip; periplasmic extract (*)
human IL-17F [7] = biological target: T1, human IL-17F; experiment: SPR Biacore, hIL-17F on chip; periplasmic extract (*); NB = no binding
Procedure: Off-rates of the periplasmic extracts containing anti-IL-17 Nanobodies were measured by Surface Plasmon Resonance (SPR) using a Biacore T100 instrument. […] Periplasmic extracts containing IL-17 neutralizing Nanobodies were injected for 2 minutes at a flow rate of 45 μl/min to allow binding to chip-bound antigen. Next, binding buffer without periplasmic extracts was sent over the chip at the same flow rate to allow spontaneous dissociation of bound Nanobody. From the sensorgrams obtained for the different periplasmic extracts koff-values (k₄) were calculated.

human IL-17A [8] = biological target: T5, human IL-17A (human, UniProt Q16552 24-155); experiment: AlphaScreen IL-17A-IL-17RA, average
T5 construct: secreted form (GenBank U32659) expressed in Hek293 with C-terminal 6-His; also called hIL-17A; IL-17A-6HIS
T5 sequence (Q16552 other isoform, or with tags, fused parts or gaps): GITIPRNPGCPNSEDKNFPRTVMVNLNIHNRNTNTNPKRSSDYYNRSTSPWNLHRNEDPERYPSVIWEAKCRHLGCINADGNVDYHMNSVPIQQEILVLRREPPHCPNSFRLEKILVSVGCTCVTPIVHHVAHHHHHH

human IL-17A [9] = biological target: T6, human IL-17A (human, UniProt Q16552 24-155); experiment: SPR (Biacore) off-rate
T6 construct: secreted form made in Hek293 cells (GenBank U32659); also called hIL-17A; hIL17A
T6 sequence (Q16552 other isoform, or with tags, fused parts or gaps): as above

human IL-17F [10] = biological target: T2, human IL-17F; experiment: SPR (Biacore) off-rate
[11] = biological target: T7, human IL-17A/F heterodimer (human, UniProt Q16552 24-155; Q96PD4 31-163, limits assumed); experiment: SPR (Biacore) off-rate
T7 construct: bought, made in E. coli (R&D Systems 5194-IL/CF); also called hIL-17A/F; hIL17A/F

human IL-17A [12] = biological target: T6, human IL-17A; experiment: AlphaScreen hIL-17A-IL-17RA; vs IL17MS13E02
human IL-17F [13] = biological target: T2, human IL-17F; experiment: AlphaScreen hIL-17F-IL-17RC; vs IL17MS13E02

T3 sequence (Q16552 other isoform, or with tags, fused parts or gaps): as above

| Binder | koff (human IL-17A [9]) [s⁻¹] | koff (human IL-17F [10]) [s⁻¹] | koff [11] [s⁻¹] | IC50 fold difference vs WT (human IL-17A [12]) [fold] | IC50 fold difference vs WT (human IL-17F [13]) [fold] | further results |
| --- | --- | --- | --- | --- | --- | --- |
| 01D02 (VHH, Class 1 Nanobody (anti-IL-17A); not shown: c-myc, His6 tag) VHH: EVQLVESGGGLVQAGGSLRLSCAASGLSFSSYALGWFRQAPGKERDFVAAINWSGDNTHYADSVKGRFTISRDNAKNTVSLQMNSLKPEDTAVYYCAAQLGYESGYSLTYDYDYWGQGTQVTVSS |  |  |  |  |  | IL-17A-induced IL-6 production in HT-1080 cells, Emax (human IL-17A [1]): 101%; IL-17A-induced IL-6 production in HT-1080 cells, IC50 (human IL-17A [1]): 4.8 nM; IC50 (human IL-17A [2]): 0.13 nM; IC50 (human IL-17A [3]): 0.363 nM; IC50 [4]: 71.7 nM; IC50 [5]: 94.7 nM; koff (human IL-17A [6]): 0.00044 s⁻¹; binding result (human IL-17F [7]): no binding |
| IL17MS3015 (VHH, name in Kabat numbering, basic + Q18L, A84P; Kabat positions) VHH: EVQLVESGGGLVQPGGSLRLSCTASGTIVNIHVMGWYRQAPGKQRELVALIFSGGSADYADSVKGRFTISRDNSKNTVYLQMNSLRPEDTAVYYCAAEIGYYSGGTYYSSEAHWGQGTLVTVSS |  |  |  |  |  | IC50 (human IL-17A [8]): 0.171 nM |
| IL17MS3016 (VHH, name in Kabat numbering, basic + T23A, A84P; Kabat positions) VHH: EVQLVESGGGLVQPGGSQRLSCAASGTIVNIHVMGWYRQAPGKQRELVALIFSGGSADYADSVKGRFTISRDNSKNTVYLQMNSLRPEDTAVYYCAAEIGYYSGGTYYSSEAHWGQGTLVTVSS |  |  |  |  |  | IC50 (human IL-17A [8]): 0.177 nM |
| 02E03 (VHH, Class 1 Nanobody (anti-IL-17A); not shown: c-myc, His6 tag) VHH: EVQLVESGGGLVQPGGSLRLSCAASGFTFSSYAMSWARQAPGEGLEWVSDINSGGTRTTYADSVKGRFTISRDNAKNTLYLQMNSLKPEDTAVYVCAKLSVFRSQLGGKYYGGDYENRGQGTQVTVSS |  |  |  |  |  | IL-17A-induced IL-6 production in HT-1080 cells, Emax (human IL-17A [1]): 99.3%; IL-17A-induced IL-6 production in HT-1080 cells, IC50 (human IL-17A [1]): 16.4 nM; IC50 (human IL-17A [2]): 0.256 nM; IC50 (human IL-17A [3]): 0.778 nM; IC50 [5]: > 250 nM; koff (human IL-17A [6]): 0.0009 s⁻¹; binding result (human IL-17F [7]): no binding |
| 03E05 (VHH, Class 1 Nanobody (anti-IL-17A); not shown: c-myc, His6 tag) VHH: EVQLVESGGGLVQAGGSLRLSCAASGVTFDDYSIGWFRQAPGKEREGVSCISSSDGIPYYSDFVKGRFTTSIDNAKNTVYLQMNSLKPEDTAVYYCAAGFGRLCAEFDSWGQGTQVTVSS |  |  |  |  |  | IL-17A-induced IL-6 production in HT-1080 cells, Emax (human IL-17A [1]): 100%; IL-17A-induced IL-6 production in HT-1080 cells, IC50 (human IL-17A [1]): 4 nM; IC50 (human IL-17A [2]): 0.058 nM; IC50 (human IL-17A [3]): 0.38 nM; IC50 [4]: > 250 nM; koff (human IL-17A [6]): 0.0001 s⁻¹; binding result (human IL-17F [7]): no binding |
| IL17MS3018 (VHH, basic variant of IL17MS13E02; Kabat numbering; also called IL17MS3018 basic) VHH: EVQLVESGGGLVQPGGSLRLSCAASGRTYDAMGWLRQAPGKEREFVAAISGSGDDTYYADSVKGRFTISKDNSGITMYLQMNSLRPEDTAVYYCATRRGLYYVWDSNDYENWGQGTLVTVSS | 9.26e-05 | 0.00267 | 1.38e-05 | 1.13 | 0.8 |  |

More lines, main results first:

| koff (human IL-17A [9]) [s⁻¹] | koff (human IL-17F [10]) [s⁻¹] | koff [11] [s⁻¹] | IC50 fold difference vs WT (human IL-17A [12]) [fold] | IC50 fold difference vs WT (human IL-17F [13]) [fold] | Binder | further results |
| --- | --- | --- | --- | --- | --- | --- |
| 0.000216 | 0.00432 | 6.43e-05 | 2.75 | 0.9 | IL17MS3021 (VHH, variant of IL17MS13E02; Kabat numbering) VHH: EVQLVESGGGLVQPGGSLRLSCAASGRTYDAMGWLRQAPGKEREFVAAISGSGDDTYYADSVKGRFTISKDNSKITMYLQMNSLRPEDTAVYYCATRRGLYYVWDSNDYENWGQGTLVTVSS |  |
| 0.000116 | 0.00367 | 4.67e-05 | 1.61 | 1 | IL17MS3037 (VHH, variant of IL17MS13E02; Kabat numbering) VHH: EVQLVESGGGLVQAGGSLRLSCAASGRTYDAMGWLRQAPGKEREFVAAISGSGDDTYYADSVKGRFTISKDNAGITMYLQMNSLKPEDTAVYYCATRRGLYYVWDANDYENWGQGTQVTVSS |  |
| 0.000745 | 0.0349 | 0.00031 | 3.72 | 4.6 | IL17MS3019 (VHH, variant of IL17MS13E02; Kabat numbering) VHH: EVQLVESGGGLVQPGGSLRLSCAASGRTYDAMGWFRQAPGKEREFVAAISGSGDDTYYADSVKGRFTISKDNSGITMYLQMNSLRPEDTAVYYCATRRGLYYVWDSNDYENWGQGTLVTVSS |  |
| 0.000132 | 0.0044 | 4.31e-05 | 2.06 | 2.2 | IL17MS3036 (VHH, variant of IL17MS13E02; Kabat numbering) VHH: EVQLVESGGGLVQAGGSLRLSCAASGRTYDAMGWLRQAPGKEREFVAAISGSGDDTYYADSVKGRFTISKDNAGITMYLQMNSLKPEDTAVYYCATRRGLYYVWDTNDYENWGQGTQVTVSS |  |
|  | 0.00083 |  | 1.42 | 0.5 | IL17MS3032 (VHH, variant of IL17MS13E02; Kabat numbering) VHH: EVQLVESGGGLVQPGGSLRLSCAASGRTYDAMGWLRQAPGKEREFVAAISGSGDDTYYADSVKGRFTISRDNSKNTMYLQMNSLRPEDTAVYYCATRRGLYYVWDSNDYENWGQGTLVTVSS |  |
| 6.41e-05 | 0.0024 | 9.89e-06 | 1.17 | 0.9 | IL17MS3022 (VHH, variant of IL17MS13E02; Kabat numbering) VHH: EVQLVESGGGLVQPGGSLRLSCAASGRTYDAMGWLRQAPGKEREFVAAISGSGDDTYYADSVKGRFTISKDNSGNTMYLQMNSLRPEDTAVYYCATRRGLYYVWDSNDYENWGQGTLVTVSS |  |
| 0.000116 | 0.00596 | 4.02e-05 | 1.68 | 2.7 | IL17MS3034 (VHH, variant of IL17MS13E02; Kabat numbering) VHH: EVQLVESGGGLVQAGGSLRLSCAASGRTYDALGWLRQAPGKEREFVAAISGSGDDTYYADSVKGRFTISKDNAGITMYLQMNSLKPEDTAVYYCATRRGLYYVWDSNDYENWGQGTQVTVSS |  |
| 7.59e-05 | 0.00431 | 3.65e-05 | 2 | 1.22 | IL17MS3035 (VHH, variant of IL17MS13E02; Kabat numbering) VHH: EVQLVESGGGLVQAGGSLRLSCAASGRTYDAMGWLRQAPGKEREFVAAISGSGDDTYYADSVKGRFTISKDNAGITLYLQMNSLKPEDTAVYYCATRRGLYYVWDSNDYENWGQGTQVTVSS |  |
| 2.84e-05 | 0.00147 | < 1e-06 | 1.24 | 1.3 | IL17MS3020 (VHH, variant of IL17MS13E02; Kabat numbering) VHH: EVQLVESGGGLVQPGGSLRLSCAASGRTYDAMGWLRQAPGKEREFVAAISGSGDDTYYADSVKGRFTISRDNSGITMYLQMNSLRPEDTAVYYCATRRGLYYVWDSNDYENWGQGTLVTVSS |  |
